{
  "source": "patent US8993725B2",
  "about": "“Notch-based fusion proteins and uses thereof” (The Trustees of Columbia University in the City of New York, priority 2004, dated 2015)",
  "key": {"[1]": {"system": "MMP9", "assay": "Gelatin zymography of conditioned medium of transduced HUVEC, MMP-9", "assay_type": "cell-based, Human", "details": "co-transduction with Ad-VEGF; fibrin gel", "protocol": "(§1) FIGS. 24A-B show gelatin zymography analysis of MMP-9 and MMP-2 activity stimulated by VEGF in HUVEC. […] Transduced HUVEC were cultured on fibrin gel on the indicated day (i.e. D2, D4, D6, D8). Similar results were also obtained by using collagen gel, although induction of MMP-9 was stronger on fibrin gel than collagen gel (data not shown). […] HUVEC were transduced with Ad-N1ECDFc at the indicated doses and condition medium was collected from HUVEC cultured on collagen gel at day 4. FIGS. 24C-D show up-regulation of MMP-9 and MT1-MMP with Notch signaling. HUVEC were transduced with either Ad-LacZ or Ad-N1IC at 40 MOI. Numbers show PCR cycles. […] HUVEC were transduced with Ad-VEGF in the absence or presence of co-transduction of Ad-N1ECDFc at 40 MOI each. Ad-LacZ was co-transduced to make the same total amount of adenovirus at 80 MOI.\n(§2) Requisition of MMPs for angiogenic sprouting has been established by synthetic MMP inhibitors (16). GM6001 is one broad inhibitor against MMPs including MMP2, MMP9 and MT1-MMP (18)."}, "[2]": {"system": "Notch1 signaling activated by Notch ligands (Jagged1, Delta-like 1, Delta-like 4)", "assay": "Co-culture assay of ligand-induced Notch signaling (CSL-luciferase reporter)", "assay_type": "cell-based", "details": "for Inhibition of ligand-induced Notch1 signaling (CSL reporter activity): fusion protein expression vector co-transfected into Notch1-expressing HeLa, co-culture with ligand-expressing 293 (Bosc) cells", "protocol": "Notch and Notch responsive transcriptional reporters are expressed in a “Notch-responsive” cell, HeLa. Notch ligands, Jagged-1, Delta-like 1, or Delta-like 4 are expressed in a “ligand-presenting” cell, 293. Expression is mediated by transfection of individual cell populations, cells are co-cultured, and then assayed for Notch-dependent reporter activity.\nTo determine ligand-induced Notch signaling, co-culture assays were performed using HeLa and 293-derived Bosc cells. Transient transfections were performed by calcium phosphate precipitation. Hela cells plated 1-day prior in 10-cm plates at 1.5×10^6 were transfected with 333 ng of pBOS Notch1, 333 ng pGA981-6, and 83 ng pLNC lacZ with either 666 ng pCMV-Fc or pHyTC-N1ECDFc (333 ng for ×1, 666 ng for ×2). Bosc cells plated 1-day prior in 10-cm plates at 4×10^6 were transfected with either 680 ng pHyTc-Jagged1, pHyTc-Dll1, pHyTc-Dll4, or pHyTc-x (empty vector). One day after transfection, the cells were co-cultured in triplicate (HeLa:Bosc, 1:2) on 12-well plates for 24 hours. Cells were harvested and luciferase activity was determined 2-days post-transfection using the Enhanced Luciferase assay kit (BD PharMingen), and β-galactosidase activity was determined using the Galacto-Light Plus kit (PE Biosystems). All assays were performed in a Berthold dual-injection luminometer.\nAn in vitro co-culture system (FIG. 3) with ligands expressed on one cell and Notch receptor activation scored in another cell was used to measure transcriptional activation of the Notch pathway. […] The N1ECD/Fc expression vector was co-transfected at different ratios with full-length Notch1 and the CSL-luciferase reporter in HeLa cells, followed by co-culture with ligand expressing 293 cells."}, "[3]": {"system": "VEGF-induced angiogenesis", "assay": "Mouse Dorsa Air Sac (DAS) assay of in vivo angiogenesis", "details": "for VEGF-induced angiogenesis / neo-vascularization in vivo (summary statement): mouse", "source_text": "These Figures show the role of Notch signaling in VEGF-dependent in vivo angiogenesis. […] Representative photographs are shown. FIG. 25A show subcutaneous induced angiogenesis with 293/VEGF transfectant versus 293/VEGF also expressing Notch decoy (Notch-based fusion protein) N1ECDFc. […] MDA-MB-231 breast cancer cells produce VEGF (data not shown)."}, "[4]": {"system": "MMP9 mRNA", "assay": "RT-PCR analysis of MMP9 expression in Ad-VEGF-HUVEC", "assay_type": "cell-based, Human", "protocol": "as §1, §2"}, "[5]": {"system": "MMP2", "assay": "Gelatin zymography of conditioned medium of transduced HUVEC, MMP-2", "assay_type": "cell-based, Human", "details": "co-transduction with Ad-VEGF; collagen gel, day 4", "protocol": "as §1, §2"}, "[6]": {"system": "HUVEC", "assay": "HUVEC proliferation (CCK-8 kit)", "assay_type": "cell-based, Human", "details": "complete medium, 4 days", "protocol": "These Figures show proliferation of Ad-VEGF165-transduced HUVEC. HUVEC were transduced with Ad-VEGF165 at the indicated dosages. Ad-LacZ was also co-infected to make the same total amount of adenovirus at a MOI of 40 pfu/cell. HUVEC were suspended in SFM supplemented with 1% FBS and then plated at 1×10^4 cells/well in 24-well multi-well plates with 0.4 ml of medium. After 4 days, cell numbers were determined using the CCK-8 kit and the results are indicated as the ratio of cell numbers determined to the number of control cells, which were transduced with Ad-GFP at a MOI of 40 pfu/cell. […] Ad-VEGF-transduced HUVEC were treated with SU5416 at the indicated dosages.\nThese Figures show the effect of alteration of Notch signaling on cell proliferation. The cells were transduced with the indicated adenoviruses. Ad-GFP was also co-infected to make the same total amount of adenovirus at a MOI of 60 pfu/cell. After 4 days, cell numbers were determined using the CCK-8 kit and results are indicated as the ratio of cell numbers determined to the number of control cells, which were transduced with AD-GFP at MOI of 60 pfu/cell. […] Transduced HUVEC were suspended in complete medium and then plated at 1×10^4 cells/well in 24-well multiwell plates with 0.4 ml of indicated medium (□: Ad-N1IC; ▪: Ad-N1ECDFc). […]"}, "[7]": {"details": "listed as Notch-based fusion protein"}},
  "data": [
    {"molecule": "N1ECDFc: Notch-based fusion protein or decoy: extracellular domain of Notch1 containing the EGF-repeats fused to the Fc portion of an antibody (protein, left off: a dimerising Fc or GST, Notch-based fusion protein or decoy: extracellular domain of Notch1 containing the EGF-repeats fused to the Fc portion of an antibody) ARGLRCSQPSGTCLNGGRCEVANGTEACVCSGAFVGQRCQDPSPCLSTPCKNAGTCYVVDHGGIVDYACSCPLGFSGPLCLTPLANACLANPCRNGGTCDLLTLTEYKCRCPPGWSGKSCQQADPCASNPCANGGQCLPFESSYICGCPPGFHGPTCRQDVNECSQNPGLCRHGGTCHNEIGSYRCACRATHTGPHCELPYVPCSPSPCQNGGTCRPTGDTTHECACLPGFAGQNCEENVDDCPGNNCKNGGACVDGVNTYNCRCPPEWTGQYCTEDVDECQLMPNACQNAGTCHNSHGGYNCVCVNGWTGEDCSDNIDDCASAACFQGATCHDRVASFYCECPHGRTGLLCHLNDACISNPCNEGSNCDTNPVNGKAICTCPRGYTGPACSQDVDECALGANPCEHAGKCLNTLGSFECQCLQGYTGPRCEIDVNECISNPCQNDATCLDQIGEFQCICMPGYEGVYCEINTDECASSPCLHNGRCVDKINEFLCQCPKGFSGHLCQYDVDECASTPCKNGAKCLDGPNTYTCVCTEGYTGTHCEVDIDECDPDPCHIGLCKDGVATFTCLCQPGYTGHHCETNINECHSQPCRHGGTCQDRDNYYLCLCLKGTTGPNCEINLDDCASNPCDSGTCLDKIDGYECACEPGYTGSMCNVNIDECAGSPCHNGGTCEDGIAGFTCRCPEGYHDPTCLSEVNECNSNPCIHGACRDGLNGYKCDCAPGWSGTNCDINNNECESNPCVNGGTCKDMTSGYVCTCREGFSGPNCQTNINECASNPCLNQGTCIDDVAGYKCNCPLPYTGATCEVVLAPCATSPCKNSGVCKESEDYESFSCVCPTGWQGQTCEIDINECVKSPCRHGASCQNTNGSYRCLCQAGYTGRNCESDIDDCRPNPCHNGGSCTDGVNAAFCDCLPGFQGAFCEEDINECATNPCQNGANCTDCVDSYTCTCPTGFNGIHCENNTPDCTESSCFNGGTCVDGINSFTCLCPPGFTGSYCQYDVNECDSRPCLHGGTCQDSYGTYKCTCPQGYTGLNCQNLVRWCDSAPCKNGGKCWQTNTQYHCECRSGWTGFNCDVLSVSCEVAAQKRGIDVTLLCQHGGLCVDEEDKHYCHCQAGYTGSYCEDEVDECSPNPCQNGATCTDYLGGFSCKCVAGYHGSNCSEEINECLSQPCQNGGTCIDLTNTYKCSCPRGTQGVHCEINVDDCHPPLDPASRSPKCFNNGTCVDQVGGYTCTCPPGFVGERCEGDVNECLSNPCDPRGTQNCVQRVNDFHCECRAGHTGRRCESVINGCRGKPCRNGGVCAVASNTARGFICRCPARFEGATCENDARTCGSLRCLNGGTCISGPRSPTCLCLGSFTGPECQFPASSPCVGSNPCYNQGTCEPTSESPFYRCLCPAKFNGLLCHILDYSFTDLGPG", "values": [
      {"measurement": "VEGF-stimulated induction and activation of MMP9 (gelatin zymography)", "setting": "[1]", "value": "inhibition of both induction and activation of MMP9"},
      {"measurement": "Concentration-dependency of inhibition of Notch1 signaling", "setting": "[2]; 2:1 versus 1:1 ratio of N1ECD/Fc to Notch1 vector", "value": "a 2:1 ratio of N1ECD/Fc to Notch1 was more effective in inhibiting signaling than a 1:1 ratio"},
      {"measurement": "Block of signaling by individual Notch ligands", "setting": "[2]; Jagged1, Delta-like 1 or Delta-like 4 expressing cells", "value": "could block signaling mediated by Jagged1, Delta-like 1 or Delta-like 4"},
      {"measurement": "Inhibition of ligand-induced Notch1 signaling (CSL reporter activity)", "setting": "[2]", "value": "inhibition of Notch signaling"},
      {"measurement": "Inhibition of ligand-induced Notch1 signaling (CSL reporter activity)", "setting": "[2]; listed as N1ECD/Fc", "value": "activation of Notch1 signaling by Notch ligands was reduced"},
      {"measurement": "Inhibition of ligand-induced Notch1 signaling (CSL reporter activity)", "setting": "[2]; listed as Notch1ECD/Fc", "value": "functions to block ligand-dependent Notch signaling"},
      {"measurement": "Inhibition of ligand-induced Notch1 signaling (CSL reporter activity)", "setting": "[2]; [7]", "value": "these inductions were inhibited"},
      {"measurement": "Vessel density, index of angiogenesis, MDA-MB-231", "setting": "[3]; Ad-N1ECDFc infected MDA-MB-231 cells", "value": "is inhibited"},
      {"measurement": "Induction of VEGFR-1 expression in vivo", "setting": "[3]; VEGF-induced skin neovascularization model", "value": "blocks"},
      {"measurement": "Inhibition of MDA-MB-231-induced in vivo angiogenesis", "setting": "[3]; adenovirus mediated expression, compared to adenovirus expressing LacZ", "value": "clearly inhibited"},
      {"measurement": "Vessel density, index of angiogenesis, 293/VEGF", "setting": "[3]; co-expression of 293/N1ECDFc", "value": "is inhibited"},
      {"measurement": "Inhibition of 293/VEGF-induced in vivo angiogenesis", "setting": "[3]; coexpression in 293/VEGF transfectant, compared to 293/VEGF alone", "value": "clearly inhibited"},
      {"measurement": "VEGF-induced angiogenesis / neo-vascularization in vivo (summary statement)", "setting": "[3]", "value": "inhibition of VEGF-induced angiogenesis"},
      {"measurement": "VEGF-induced angiogenesis / neo-vascularization in vivo (summary statement)", "setting": "[3]; [7]", "value": "blocks VEGF-induced neo-vascularization"},
      {"measurement": "Expression of MMP9, fusion protein adenovirus alone", "setting": "[4]; Ad-LacZ infected HUVEC, data not shown", "value": "did not affect expression of either MMP9 or MT1-MMP"},
      {"measurement": "VEGF-induced up-regulation of MMP9 mRNA", "setting": "[4]; co-transduction with Ad-VEGF, 40 MOI each", "value": "this induction was inhibited"},
      {"measurement": "VEGF-stimulated activation of MMP2 (gelatin zymography)", "setting": "[5]", "value": "inhibition"},
      {"measurement": "Proliferation of transduced HUVEC", "setting": "[6]", "value": "did not clearly alter proliferation of HUVEC"}
    ]}
  ]
}
